Data published in patent publication US20180134765A1 (AVIDBIOTICS, published 2018).
Changes are numbered by the printed parent chain. Names and notes keep the numbering of the source.

Assays:
ULBP4-Fc [1] = molecular target: T1, ULBP4-Fc (UniProt Q8TD07 31-225); assay: plate ELISA: biotinylated natural NKG2D ectodomain titrated on coated ligand-Fc
T1 construct: Bought, R&D Systems; not shown: Fc part of the bought reagent
T1 sequence (looked up): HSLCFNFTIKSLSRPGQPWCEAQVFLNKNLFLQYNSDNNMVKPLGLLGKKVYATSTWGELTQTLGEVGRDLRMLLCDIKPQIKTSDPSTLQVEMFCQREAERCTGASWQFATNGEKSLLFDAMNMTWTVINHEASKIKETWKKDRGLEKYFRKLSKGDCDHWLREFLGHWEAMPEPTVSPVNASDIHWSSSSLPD

MICB-Fc [2] = molecular target: T2, MICB-Fc (UniProt Q29980 23-298); assay: ELISA: ligand-Fc coated at 2 ug/ml, biotinylated NKG2D ectodomain titrated, streptavidin-HRP
T2 construct: Bought, R&D Systems; not shown: Fc part of the bought reagent
T2 sequence (looked up): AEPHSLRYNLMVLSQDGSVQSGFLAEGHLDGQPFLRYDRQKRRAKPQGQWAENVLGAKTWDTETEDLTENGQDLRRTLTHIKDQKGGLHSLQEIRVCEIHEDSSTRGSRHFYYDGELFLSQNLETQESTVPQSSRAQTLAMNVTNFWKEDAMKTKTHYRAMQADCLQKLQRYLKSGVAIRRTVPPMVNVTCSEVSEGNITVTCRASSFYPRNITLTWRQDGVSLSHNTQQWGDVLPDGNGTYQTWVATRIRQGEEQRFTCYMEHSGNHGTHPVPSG

ULBP3-Fc [3] = molecular target: T3, ULBP3-Fc (UniProt Q9BZM4 30-217); assay: as above
T3 construct: Bought, R&D Systems; not shown: Fc part of the bought reagent
T3 sequence (looked up): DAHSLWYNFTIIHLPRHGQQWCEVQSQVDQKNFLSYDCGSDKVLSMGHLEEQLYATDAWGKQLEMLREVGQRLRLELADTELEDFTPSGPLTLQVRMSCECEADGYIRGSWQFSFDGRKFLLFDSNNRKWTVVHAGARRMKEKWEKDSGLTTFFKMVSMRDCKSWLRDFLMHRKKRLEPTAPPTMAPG

MICwed-Fc [4] = assay: as above
ULBP1-Fc [5] = molecular target: T4, ULBP1-Fc (UniProt Q9BZM6 26-216); assay: as above
T4 construct: Bought, R&D Systems; not shown: Fc part of the bought reagent
T4 sequence (looked up): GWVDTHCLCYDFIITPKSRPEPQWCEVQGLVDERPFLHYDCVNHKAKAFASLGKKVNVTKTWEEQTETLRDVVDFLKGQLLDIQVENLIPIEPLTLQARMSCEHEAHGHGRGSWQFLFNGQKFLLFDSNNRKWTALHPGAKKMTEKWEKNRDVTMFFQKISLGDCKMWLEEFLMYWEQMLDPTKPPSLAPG

ULBP2-Fc [6] = molecular target: T5, ULBP2-Fc (UniProt Q9BZM5 26-217); assay: as above
T5 construct: Bought, R&D Systems; not shown: Fc part of the bought reagent
T5 sequence (looked up): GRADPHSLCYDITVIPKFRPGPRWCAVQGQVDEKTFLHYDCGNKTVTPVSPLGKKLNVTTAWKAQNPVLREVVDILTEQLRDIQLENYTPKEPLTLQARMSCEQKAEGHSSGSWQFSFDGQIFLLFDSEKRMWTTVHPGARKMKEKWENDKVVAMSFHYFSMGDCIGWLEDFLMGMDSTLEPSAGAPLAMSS

ULBP4-Fc [7] = molecular target: T1, ULBP4-Fc; assay: ELISA: ligand-Fc coated at 2 ug/ml, biotinylated NKG2D Y152A ectodomain titrated, streptavidin-HRP
MICB-Fc [8] = molecular target: T2, MICB-Fc; assay: as above
ULBP3-Fc [9] = molecular target: T3, ULBP3-Fc; assay: as above
MICA-Fc [10] = molecular target: T6, MICA-Fc; assay: as above
T6 construct: also called natural α1-α2-α3-Fc fusion
T6 chain: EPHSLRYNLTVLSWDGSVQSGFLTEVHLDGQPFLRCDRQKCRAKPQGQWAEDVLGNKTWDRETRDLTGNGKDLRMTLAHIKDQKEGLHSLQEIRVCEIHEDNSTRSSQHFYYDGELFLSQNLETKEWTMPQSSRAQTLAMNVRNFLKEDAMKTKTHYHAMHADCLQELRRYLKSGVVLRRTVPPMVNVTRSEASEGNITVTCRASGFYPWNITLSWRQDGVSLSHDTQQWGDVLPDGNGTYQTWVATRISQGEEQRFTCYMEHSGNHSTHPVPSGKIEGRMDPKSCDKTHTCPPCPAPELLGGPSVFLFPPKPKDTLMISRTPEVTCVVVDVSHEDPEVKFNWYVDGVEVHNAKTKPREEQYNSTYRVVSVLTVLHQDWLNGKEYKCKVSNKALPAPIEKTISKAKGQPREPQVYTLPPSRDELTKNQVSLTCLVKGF

MICwed-Fc [11] = assay: as above
ULBP1-Fc [12] = molecular target: T4, ULBP1-Fc; assay: as above
ULBP2-Fc [13] = molecular target: T5, ULBP2-Fc; assay: as above
ULBP4-Fc [14] = molecular target: T1, ULBP4-Fc; assay: ELISA: ligand-Fc coated at 2 ug/ml, biotinylated NKG2D Y199A ectodomain titrated, streptavidin-HRP
MICv25-Fc [15] = molecular target: T7, MICv25-Fc; assay: as above
T7 construct: also called MIC-v25 α1-α2 domain ligand

MICB-Fc [16] = molecular target: T2, MICB-Fc; assay: as above
ULBP3-Fc [17] = molecular target: T3, ULBP3-Fc; assay: as above
MICA-Fc [18] = molecular target: T6, MICA-Fc; assay: as above
MICwed-Fc [19] = assay: as above
ULBP1-Fc [20] = molecular target: T4, ULBP1-Fc; assay: as above
ULBP2-Fc [21] = molecular target: T5, ULBP2-Fc; assay: as above
ULBP4-Fc [22] = molecular target: T1, ULBP4-Fc; assay: ELISA: ligand-Fc coated at 2 ug/ml, biotinylated NKG2D Y152A, Y199A ectodomain titrated, streptavidin-HRP
MICv25-Fc [23] = molecular target: T7, MICv25-Fc; assay: as above
MICB-Fc [24] = molecular target: T2, MICB-Fc; assay: as above
ULBP3-Fc [25] = molecular target: T3, ULBP3-Fc; assay: as above
MICA-Fc [26] = molecular target: T6, MICA-Fc; assay: as above
MICwed-Fc [27] = assay: as above
ULBP1-Fc [28] = molecular target: T4, ULBP1-Fc; assay: as above
ULBP2-Fc [29] = molecular target: T5, ULBP2-Fc; assay: as above
OMCP-α3-iFv.2 = molecular target: T8, OMCP-α3-iFv.2; assay: ELISA: protein captured on FGFR3 detected with NKG2D-Fc
T8 construct: also called NKG2DL-α3-iFv.2 (OMCP)

B1: His-avitag-natural NKG2D (receptor)
chain: EPHHHHHHGLNDIFEAQKIEWHENSLFNQEVQIPLTESYCGPCPKNWICYKNNCYQFFDESKNWYESQASCMSQNASLLKVYSKEDQDLLKLVKSYHWMGLVHIPTNGSWQWEDGSILSPNLLTIIEMQKGDCALYASSFKGYIENCSTPNTYICMQRTV
modifications: biotin on the avitag sequence (BirA)
notes: also called natural NKG2D ectodomain; wild type NKG2D
- binding result (ULBP4-Fc [1]): binds
- binding result (MICB-Fc [2]): binds
- binding result (ULBP3-Fc [3]): binds
- EC50 (read off the curve) (MICwed-Fc [4]): ~100 nM
- binding result (ULBP1-Fc [5]): binds
- binding result (ULBP2-Fc [6]): binds

B2: Y152A NKG2D ectodomain (receptor)
chain: B1 chain with Y96A
modifications: biotin on the avitag sequence (BirA)
notes: Expressed with His-avitag; also called non-natural NKG2D mutant Y152A; Y152A mutant NKG2D ectodomain
- binding result (ULBP4-Fc [7]): no binding (tested: 2000 nM)
- binding result (MICB-Fc [8]): no binding (tested: 2000 nM)
- binding result (ULBP3-Fc [9]): no binding (tested: 2000 nM)
- binding result (MICA-Fc [10]): no binding (tested: 2000 nM)
- binding result (MICwed-Fc [11]): no binding (tested: 2000 nM)
- binding result (ULBP1-Fc [12]): no binding (tested: 2000 nM)
- binding result (ULBP2-Fc [13]): no binding (tested: 2000 nM)

B3: Y199A NKG2D ectodomain (receptor)
chain: B1 chain with Y143A
modifications: biotin on the avitag sequence (BirA)
notes: Expressed with His-avitag; also called non-natural NKG2D mutant Y199A
- binding result (ULBP4-Fc [14]): no binding (tested: 2000 nM)
- binding result (MICv25-Fc [15]): no binding (tested: 2000 nM)
- binding result (MICB-Fc [16]): no binding (tested: 2000 nM)
- binding result (ULBP3-Fc [17]): no binding (tested: 2000 nM)
- binding result (MICA-Fc [18]): no binding (tested: 2000 nM)
- binding result (MICwed-Fc [19]): no binding (tested: 2000 nM)
- binding result (ULBP1-Fc [20]): no binding (tested: 2000 nM)
- binding result (ULBP2-Fc [21]): no binding (tested: 2000 nM)

B4: Y152A plus Y199A NKG2D ectodomain (receptor)
chain: B1 chain with Y96A, Y143A
modifications: biotin on the avitag sequence (BirA)
notes: Expressed with His-avitag; also called non-natural NKG2D double mutant Y152A and Y199A
- binding result (ULBP4-Fc [22]): no binding (tested: 2000 nM)
- binding result (MICv25-Fc [23]): no binding (tested: 2000 nM)
- binding result (MICB-Fc [24]): no binding (tested: 2000 nM)
- binding result (ULBP3-Fc [25]): no binding (tested: 2000 nM)
- binding result (MICA-Fc [26]): no binding (tested: 2000 nM)
- binding result (MICwed-Fc [27]): no binding (tested: 2000 nM)
- binding result (ULBP1-Fc [28]): no binding (tested: 2000 nM)
- binding result (ULBP2-Fc [29]): no binding (tested: 2000 nM)

B5: human NKG2D-Fc (Fc fusion)
chain: FLNSLFNQEVQIPLTESYCGPCPKNWICYKNNCYQFFDESKNWYESQASCMSQNASLLKVYSKEDQDLLKLVKSYHWMGLVHIPTNGSWQWEDGSILSPNLLTIIEMQKGDCALYASSFKGYIENCSTPNTYICMQRTV
notes: also called natural NKG2D-Fc; not shown: Fc part
- binding result (OMCP-α3-iFv.2): binds
